Results from the supplement of paper PMC12042874.
± gives the uncertainty stated by the source.

Assay: amyloid nucleation score (Sup35N fusion, yeast selection) (log enrichment); library NNK2; higher = more nucleation; inactive = no reads after selection
Method in brief: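 The nucleation score is the log enrichment of output over input reads, calculated with DiMSum and centred on the mode score of non-aggregating sequences. Sequences with under 100 input reads were excluded. Reads came from Illumina sequencing of plasmid inserts from psi-negative yeast expressing Sup35N fused to peptides of 20 random codons, induced 24 hours with 100 μM copper sulfate and grown 7 days at 30°C without adenine and uracil.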

Row | Substance | amyloid nucleation score
1 | LTATLAFLVSCFYCSL | 6.95 ± 0.028
2 | VLWVS | inactive
3 | YWLVRMVHGRAWPIFEENCQ | -0.01 ± 1
4 | IAVERS | -0.464 ± 1.1
5 | KVFSPHRNWWVI | 0.553 ± 0.57
6 | LQVVVMFCPSL | 8.29 ± 0.024
7 | IEFWDYKYVLVSSFVFKHDV | -0.069 ± 0.65
8 | NMPEFC | 0.283 ± 0.21
9 | FVWSKSR | 2.88 ± 0.13
10 | CLPNTST | 0.075 ± 0.2
11 | CKRFFYFLGIPATPDRSAFS | -0.588 ± 0.76
12 | QTYMPTFCYITFLECWSDKG | 7.685 ± 0.035
13 | YTFCKHDVYAISLRFVLAPY | 7.304 ± 0.035
14 | DVKKYLRGYCIRPCLLSYLI | -0.807 ± 0.79
15 | SRTYATRLQLM | 0.007 ± 0.76
16 | LNFWLHD | 0.09 ± 1
17 | LLFVCVFYVYSSPDNHILAM | -0.633 ± 1.1
18 | HWWLVIAMNRLGCFGEFMMR | -0.547 ± 0.63
19 | VERIKLFASAHYS | -0.203 ± 0.35
20 | CVLDLNVMDGGLL | -1.26 ± 0.38
21 | ALEMSMGKCFWGLVVVIMRW | -0.899 ± 0.36
22 | SNIYRCPVMSIRSVSHS | 0.536 ± 0.66

Row | Substance | amyloid nucleation score
23 | ITQRFKTWRCGGGDEVRQAN | 0.239 ± 0.49
24 | VSHRG | 2.37 ± 0.076
25 | HYMRFYCCSYNANKTVSYVP | 8.72 ± 0.028
26 | IIMPF | -0.682 ± 0.64
27 | MLVEMYLFVNLCLYMRMSFR | 0.018 ± 0.5
28 | SGRHVNVLYYNFNGPDDQFK | 6.866 ± 0.029
29 | YFVFHDQKSTNLGWIFVFCR | 0.108 ± 0.65
30 | MYSVMLRTSYCTLARYMVLW | 1.08 ± 0.11
31 | MLCRNIHRCKMHREPLGVFH | 0.578 ± 0.81
32 | HCTWSQPPSS | -0.001 ± 0.5
33 | VTAAIIVFCNGVLVRWTFIM | -0.99 ± 1
34 | SGCFVWPELVGESSIIMCPS | inactive
35 | METAPTLNINVSDSQRPNVW | 0.71 ± 0.53
36 | KMCLIRYMHNPKVGIRLGRS | 0.102 ± 0.33
37 | IRGYYYGMRYSDWGSC | -0.06 ± 0.31
38 | TCYTTSVRNSTS | 0.082 ± 0.36
39 | YLDAHILHE | 4.54 ± 0.087
40 | SLLMNMS | 0.269 ± 0.37
41 | LTTSFANAWHFNFLGRPLH | 2.18 ± 0.18
42 | SGRTGIGWYLFCRPYPIVYA | 0.277 ± 0.39
43 | IKWRSFPDSYLENFEFI | -1.6 ± 1.1
44 | AHHPYTNQGSTVRSRAGQWG | 0.519 ± 0.54

Row | Substance | amyloid nucleation score
45 | GFRFSVIGI | -0.101 ± 0.63
46 | FYHCFDVLSSQMYYLKLLST | inactive
47 | TIIRMKLS | 1.39 ± 0.39
48 | YNSNFPTLYWG | inactive
49 | YEYVSYCVSDFRYLLQTV | 0.436 ± 0.66
50 | GLLGAVDRTVR | 0.238 ± 0.56
51 | WVDIPFW | -0.83 ± 1.1
52 | TWCMRMNCSAFRKGVVNYSR | 2.91 ± 0.078
53 | WWFLIYLSSYRGNRCILVWF | -1.98 ± 0.44
54 | SMDRLRRDGYLGSVVCYNRS | -0.935 ± 0.54
55 | LYRVILLSSRHNGSNIWAEF | 0.127 ± 0.74
56 | DNYLYYYFYSFRLTEALFIC | -0.297 ± 1.1
57 | YRVDSHWANLVLKTSMIWTT | -0.829 ± 0.28
58 | KRWQVLFDRSRKYCRVGKT | 0.161 ± 0.56
59 | IVSVFQYRTVNIFVGFYYIR | inactive
60 | LWIIPQELGLCLMCGVVCCV | -1.41 ± 0.75
61 | NWVWLKWRITQYFIHSASSS | 1.43 ± 0.19
62 | MRSFGPIFSVLL | -0.067 ± 0.34
63 | GWLYVYDSGMFGGWNIGVDG | -0.131 ± 0.36
64 | FGCNSSGWNVKIPSGGLGNE | -0.647 ± 0.53
65 | WSLLEF | inactive
66 | HCGVLVDISFEHALIFR | -1.99 ± 0.78

Row | Substance | amyloid nucleation score
67 | LTEVVMAILFSDDSRYIFCG | 1.41 ± 0.16
68 | FLIRDLAMHSSCSGSAIMIT | -0.713 ± 0.37
69 | SVMFMNSSFQRAT | -0.586 ± 0.42
70 | CVCLD | 0.1 ± 0.33
71 | LRKALIDAFRT | 2.18 ± 0.066
72 | KVSSLNCCVRCLDTMCAFQV | 6.15 ± 0.088
73 | HGHASFIRF | 2.13 ± 0.2
74 | MIISTVMSGMNANSLVVWAY | 0.375 ± 0.21
75 | RYRELVGVKCMV | 0.978 ± 0.74
76 | KRVGTYEVKI | -0.253 ± 0.55
77 | WEIRNAYVQVT | -0.178 ± 0.39
78 | TVRASCFRVSVRKEKKIVVA | 0.233 ± 0.77
79 | KLYKCQRQCPALAKVTYGYK | 0.332 ± 0.27
80 | TVRRTRFLNNISFNGFNVFV | 7.383 ± 0.054
81 | DYLRYRYSMFCTCPAVTQS | -0.567 ± 0.78
82 | SKGYCWNVICSRVSFTTYAL | 6.77 ± 0.061
83 | ILVHVSFDNRFN | 6.06 ± 0.077
84 | KFGSWDHSACYSRWYSKSFV | -0.012 ± 1.1
85 | NSFVAIKCIV | -0.023 ± 0.33
86 | AEAYGTSSRRSCCRGRVV | 0.476 ± 0.5
87 | ERMSLMGWDFIKCRISLAMS | -0.021 ± 0.65
88 | TCNWGMDG | 0.553 ± 0.62
